Source: patent US20240270845A1 (ZELARION MALTA, published 2024)

T1: Recombinant truncated human CD2 (human, UniProt P06729 25-209, limits assumed)
T1 construct: Bought; also called LFA2
T1 sequence (looked up): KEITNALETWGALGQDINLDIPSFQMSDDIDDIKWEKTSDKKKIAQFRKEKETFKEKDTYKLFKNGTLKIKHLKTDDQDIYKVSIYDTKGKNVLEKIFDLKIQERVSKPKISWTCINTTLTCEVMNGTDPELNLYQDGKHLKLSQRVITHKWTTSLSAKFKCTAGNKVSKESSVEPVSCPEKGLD

B1: Siplizumab (humanized anti-CD2 IgG1κ) (antibody, V domains shown)
VH: QVQLVQSGAEVQRPGASVKVSCKASGYIFTEYYMYWVRQAPGQGLELVGRIDPEDGSIDYVEKFKKKVTLTADTSSSTAYMELSSLTSDDTAVYYCARGKFNYRFAYWGQGTLVTVSS
VL: DVVMTQSPPSLLVTLGQPASISCRSSQSLLHSSGNTYLNWLLQRPGQSPQPLIYLVSKLESGVPDRFSGSGSGTDFTLKISGVEAEDVGVYYCMQFTHYPYTFGQGTKLEIK
notes: also called MEDI-507; anti-CD2 Ab1
B2: CD2-binding molecule 1 (a deglycosylated CD2-binding molecule) (antibody, V domains shown)
VH: QVQLVQSGAEVQRPGASVKVSCKASGYIFTEYYMYWVRQAPGQGLELVGRIDPEDGSIDYVEKFKKKVTLTADTSSSTAYMELSSLTSDDTAVYYCARGKFNYRFAYWGQGTLVTVSS
VL: DVVMTQSPPSLLVTLGQPASISCRSSQSLLHSSGNTYLNWLLQRPGQSPQPLIYLVSKLESGVPDRFSGSGSGTDFTLKISGVEAEDVGVYYCMQFTHYPYTFGQGTKLEIK
modifications: Fc N-glycan removed with EndoS2 (GlycINATOR)
notes: produced with GlycINATOR (EndoS2)
B3: CD2-binding molecule 2 (Fc-silent (FcS) anti-CD2 IgG1) (antibody, V domains shown)
VH: QVQLVQSGAEVQRPGASVKVSCKASGYIFTEYYMYWVRQAPGQGLELVGRIDPEDGSIDYVEKFKKKVTLTADTSSSTAYMELSSLTSDDTAVYYCARGKFNYRFAYWGQGTLVTVSS
VL: DVVMTQSPPSLLVTLGQPASISCRSSQSLLHSSGNTYLNWLLQRPGQSPQPLIYLVSKLESGVPDRFSGSGSGTDFTLKISGVEAEDVGVYYCMQFTHYPYTFGQGTKLEIK
notes: IgG1 with LALA-PG mutations at equivalent sites in siplizumab; made in CHO-K1 cells; also called Fc-silent Siplizumab
B4: CD2-binding molecule 3 (FcS anti-CD2 IgG2) (antibody, V domains shown)
VH: QVQLVQSGAEVQRPGASVKVSCKASGYIFTEYYMYWVRQAPGQGLELVGRIDPEDGSIDYVEKFKKKVTLTADTSSSTAYMELSSLTSDDTAVYYCARGKFNYRFAYWGQGTLVTVSS
VL: DVVMTQSPPSLLVTLGQPASISCRSSQSLLHSSGNTYLNWLLQRPGQSPQPLIYLVSKLESGVPDRFSGSGSGTDFTLKISGVEAEDVGVYYCMQFTHYPYTFGQGTKLEIK
notes: Standard IgG2 framework with V234A, G237A, P238S, H268A, V309L, A330S, P331S; made in CHO-K1 cells
B5: CD2-binding molecule 4 (FcS anti-CD2 IgG4) (antibody, V domains shown)
VH: QVQLVQSGAEVQRPGASVKVSCKASGYIFTEYYMYWVRQAPGQGLELVGRIDPEDGSIDYVEKFKKKVTLTADTSSSTAYMELSSLTSDDTAVYYCARGKFNYRFAYWGQGTLVTVSS
VL: DVVMTQSPPSLLVTLGQPASISCRSSQSLLHSSGNTYLNWLLQRPGQSPQPLIYLVSKLESGVPDRFSGSGSGTDFTLKISGVEAEDVGVYYCMQFTHYPYTFGQGTKLEIK
notes: Standard IgG4 framework with S228P, L235E, P329G; made in CHO-K1 cells

target: T1, Recombinant truncated human CD2; assay: SPR (Biacore T200), IgG amine-coupled to CM5 chip, CD2 injected up to 5 nM, two-state model, 25 °C
Experimental: All interaction experiments were performed at 25° C. Recombinant truncated human CD2 (Sino Biological, Beijing, China) was diluted in two-fold dilution series with the highest concentration being 5 nM and injected for 180 seconds over immobilized IgG. After 15 minutes of dissociation, the sensor chip was regenerated by 30 seconds injection of 10 mM glycine pH 1.7. Sensorgrams from reference surfaces and blank injections were subtracted from the raw data prior to data analysis. A two-state (induced fit) interaction model was fitted to the data using T200 evaluation software v3.0 (Cytiva Life Sciences/Biacore, Uppsala, Sweden) to determine kinetic rate constants and affinities.

Row | Binder | Kd
1 | B1 | 1.2 nM
2 | B2 | 1.2 nM
3 | B3 | 1.5 nM
4 | B4 | 0.9 nM
5 | B5 | 1.4 nM
